Test results as given in paper PMC6874091.

Molecular target: 14-3-3 (endogenous, detected with a 14-3-3 antibody; isoform not told) (UniProt Q04917)
Test: anti-FLAG co-immunoprecipitation, western blot densitometry
Settings: HeLa cells, transfected; mean ± SD of three experiments; read off a plot

Chain of UniProt Q04917 (Q04917 whole entry, canonical isoform): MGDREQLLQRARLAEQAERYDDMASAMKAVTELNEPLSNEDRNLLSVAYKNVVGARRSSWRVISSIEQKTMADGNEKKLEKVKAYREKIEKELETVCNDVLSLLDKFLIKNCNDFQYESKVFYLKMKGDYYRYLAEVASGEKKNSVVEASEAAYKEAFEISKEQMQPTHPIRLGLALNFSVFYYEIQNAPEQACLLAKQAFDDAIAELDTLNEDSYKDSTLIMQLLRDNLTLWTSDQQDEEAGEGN

3xFLAG-BPLF1 (amino acid residues 1-235), catalytically active N-terminal deconjugase domain of the Epstein-Barr virus large tegument protein BPLF1 (from UniProt P03186) D86R; D90R
ratio to parent: 0.49
